Experimental data reported in the supplement of paper PMC10201428.
± gives the standard deviation of the averaged measurements.

B1: library; a variant is named by its letters at N, in order (parent)
chain: AATGTTGTTGATGCAACCATAAAGTGATATTTAATAATTATTTATAATCAGCAACTTAACCACAAAACAACCATATATTGATATNTCACAAAACAACCATAANTTGATATTTTTGTGAATCGAGTATTTCAGCAAAACTACTGCAGTAAGAA

Experiments:
[1] = variants of: B1; assay: relative integration efficiency (T-LR orientation) vs wild-type transposon end (log2 (normalized fold change)); transposon end mutated: left end; higher = more efficient transposition; details: with VchCAST RNA-guided transposition machinery (E. coli BL21(DE3) host, lacZ target)
Summary of the method: (§1)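 Barcoded pools of 1549 left-end or 1849 right-end transposon variants were cloned into a pUC57 mini-transposon donor. Each pool was co-transformed with a T7-driven effector plasmid (CRISPR array, tniQ-cas8-cas7-cas6, tnsA-tnsB-tnsC) into E. coli BL21(DE3) and plated with 0.1 mM IPTG at 37°C for 18 h. Input plasmids and genomic integration junctions were PCR-amplified and Illumina-sequenced, with two biological output replicates and four wild-type barcodes as reference. Relative integration efficiency is output/input barcode abundance fold change, normalised to wild-type barcodes and log-transformed.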

[2] = variants of: B1; assay: relative integration efficiency (T-RL orientation) vs wild-type transposon end (log2 (normalized fold change)); transposon end mutated: left end; higher = more efficient transposition; details: with VchCAST RNA-guided transposition machinery (E. coli BL21(DE3) host, lacZ target)
Summary of the method: as §1

Row | Variant | relative integration efficiency (log2) [1] | relative integration efficiency (log2) [2]
1 | CG C18G A19T T20A A21T | -2.57 ± 1.4 | -1.37 ± 0.56
2 | CG C18G C72G C98G | -0.915 ± 0.23 | -0.987 ± 0.56
3 | CG C18T | 0.181 ± 0.51 | 0.16 ± 0.08
4 | CG C49A | -0.195 ± 0.69 | 0.178 ± 0.24
5 | CG C49A A50C | -0.934 ± 0.45 | -0.598 ± 0.47
6 | CG C49A A50C G51T C52A | -1.02 ± 1.1 | -0.71 ± 0.6
7 | CG C49A A50T C52T T56C T57A C60A C61G A62T C63A | -3.63 ± 0.43 | -5.28 ± 0.94
8 | CG C49G | 0.811 ± 0.52 | 0.127 ± 0.33
9 | CG C49G A50T | -0.94 ± 0.92 | -0.509 ± 0.62
10 | CG C49G A50T G51C C52G | -1.24 ± 0.76 | -1.58 ± 0.9
11 | CG C49G G51T C52G C55T A58T A59T C60A C61T A62G | -4.34 ± 2.5 | -4.9 ± 0.68
12 | CG C49T | -0.164 ± 0.35 | 0.0612 ± 0.15
13 | CG C52A | 0.484 ± 0.55 | 0.279 ± 0.017
14 | CG C52A A53C | 0.0739 ± 0.63 | -0.177 ± 0.1
15 | CG C52A A53C A54C C55A | 0.277 ± 0.23 | 0.0708 ± 0.21
16 | CG C52G | 0.484 ± 0.31 | -0.00219 ± 0.15
17 | CG C52G A53T | 0.253 ± 0.28 | 0.138 ± 0.048
18 | CG C52G A53T A54T C55G | 0.133 ± 0.24 | 0.0283 ± 0.2
19 | CG C52T | 0.154 ± 0.19 | 0.201 ± 0.14
20 | CG C55A | -0.0412 ± 0.7 | 0.0708 ± 0.088
21 | CG C55A T56G | -0.293 ± 0.89 | 0.0947 ± 0.38
22 | CG C55G | 0.245 ± 0.15 | 0.177 ± 0.069
23 | CG C55G T56A | 0.0301 ± 0.44 | 0.0691 ± 0.024
24 | CG C55G T56A T57A A58T | -2.28 ± 0.67 | -0.983 ± 0.39

Row | Variant | relative integration efficiency (log2) [1] | relative integration efficiency (log2) [2]
25 | CG C55T | 0.102 ± 0.26 | -0.123 ± 0.13
26 | CG C60A | 0.503 ± 0.15 | 0.0973 ± 0.034
27 | CG C60A C61A | 0.547 ± 0.41 | 0.353 ± 0.049
28 | CG C60A C61A A62C C63A | 0.51 ± 0.29 | 0.406 ± 0.095
29 | CG C60G | 0.358 ± 0.26 | -0.0988 ± 0.017
30 | CG C60G C61G | 0.337 ± 0.57 | -0.185 ± 0.23
31 | CG C60G C61G A62T C63G | 0.27 ± 0.29 | -0.0479 ± 0.14
32 | CG C60T | 0.161 ± 0.34 | -0.00379 ± 0.0024
33 | CG C61A | 0.321 ± 0.14 | 0.0593 ± 0.091
34 | CG C61A A62C | 0.514 ± 0.034 | 0.443 ± 0.054
35 | CG C61A A62C C63A A64C | -0.0245 ± 0.0054 | 0.137 ± 0.14
36 | CG C61G | -0.0835 ± 0.46 | -0.191 ± 0.019
37 | CG C61G A62T | -0.236 ± 0.51 | -0.362 ± 0.074
38 | CG C61G A62T C63G A64T | 0.0811 ± 0.61 | -0.0813 ± 0.26
39 | CG C61T | 0.151 ± 0.41 | -0.122 ± 0.029
40 | CG C63A | 0.438 ± 0.02 | 0.237 ± 0.012
41 | CG C63A A64C | 0.557 ± 0.37 | -0.135 ± 0.079
42 | CG C63A A64C A65C A66C | -0.236 ± 0.15 | -0.189 ± 0.012
43 | CG C63G | 0.324 ± 0.23 | 0.223 ± 0.039
44 | CG C63G A64T | 0.148 ± 0.19 | 0.1041 ± 0.00033
45 | CG C63G A64T A65T A66T | 0.34 ± 0.24 | 0.217 ± 0.0048
46 | CG C63T | 0.266 ± 0.018 | 0.0804 ± 0.061
47 | CG C68A | -0.255 ± 0.47 | -0.433 ± 0.32
48 | CG C68A A69C | -0.147 ± 0.86 | -0.266 ± 0.23

Row | Variant | relative integration efficiency (log2) [1] | relative integration efficiency (log2) [2]
49 | CG C68A A69C A70C C71A | -1.37 ± 0.95 | -1.67 ± 0.63
50 | CG C68G | -0.736 ± 0.69 | -0.831 ± 0.36
51 | CG C68G A69T | -0.877 ± 0.31 | -1.02 ± 0.41
52 | CG C68G A69T A70T C71G | -0.963 ± 0.71 | -1.93 ± 0.91
53 | CG C68T | -1.08 ± 0.81 | -0.627 ± 0.41
54 | CG C71A | -0.709 ± 0.022 | -0.461 ± 0.26
55 | CG C71A C72A | -1.63 ± 1.1 | -1.05 ± 0.77
56 | CG C71A C72A A73C T74G | -2.28 ± 1.8 | -2.51 ± 1
57 | CG C71G | -0.452 ± 0.8 | -0.253 ± 0.4
58 | CG C71G C72G | -1.67 ± 1.9 | -1.32 ± 0.57
59 | CG C71G C72G A73T T74A | -1.87 ± 0.61 | -2.18 ± 0.97
60 | CG C71T | -0.49 ± 0.49 | -0.408 ± 0.23
61 | CG C72A | -0.613 ± 1 | -0.492 ± 0.48
62 | CG C72A A73C | -2.02 ± 0.55 | -2.16 ± 0.91
63 | CG C72A A73C T74G A75C | -2.39 ± 1.6 | -2.27 ± 0.64
64 | CG C72G | -0.262 ± 0.52 | -0.201 ± 0.43
65 | CG C72G A73T | -1.6 ± 1.4 | -1.44 ± 0.73
66 | CG C72G A73T T74A A75T | -1.75 ± 0.9 | -1.77 ± 0.81
67 | CG C72T | -0.0498 ± 0.25 | -0.0527 ± 0.2
68 | CG C87A | -0.42 ± 0.76 | -0.276 ± 0.053
69 | CG C87A A88C | 0.256 ± 0.18 | -0.00605 ± 0.14
70 | CG C87A A88C C89A A90C | 0.382 ± 0.34 | 0.292 ± 0.29
71 | CG C87G | 0.0991 ± 0.48 | -0.138 ± 0.019
72 | CG C87G A88T | 0.294 ± 0.33 | 0.11 ± 0.21

Row | Variant | relative integration efficiency (log2) [1] | relative integration efficiency (log2) [2]
73 | CG C87G A88T C89G A90T | 0.251 ± 0.48 | -0.077 ± 0.18
74 | CG C87T | -0.29 ± 0.12 | -0.0232 ± 0.071
75 | CG C89A | 0.447 ± 0.3 | 0.031 ± 0.013
76 | CG C89A A90C | 0.0275 ± 0.49 | -0.181 ± 0.15
77 | CG C89A A90C A91C A92C | -0.143 ± 0.65 | -0.537 ± 0.37
78 | CG C89G | 0.0739 ± 0.015 | -0.315 ± 0.029
79 | CG C89G A90T | 0.739 ± 0.17 | 0.378 ± 0.24
80 | CG C89G A90T A91T A92T | -0.0713 ± 0.9 | -0.00767 ± 0.14
81 | CG C89T | 0.203 ± 0.062 | -0.158 ± 0.031
82 | CG C94A | -0.54 ± 0.48 | -0.268 ± 0.25
83 | CG C94A A95C | -0.623 ± 0.98 | -0.474 ± 0.4
84 | CG C94A A95C A96C C97A | -1.9 ± 0.51 | -1.87 ± 0.78
85 | CG C94G | -1.16 ± 0.81 | -0.958 ± 0.57
86 | CG C94G A95T | -2.11 ± 0.65 | -1.23 ± 0.53
87 | CG C94G A95T A96T C97G | -1.95 ± 1.2 | -0.731 ± 1
88 | CG C94T | -0.715 ± 0.59 | -0.669 ± 0.41
89 | CG C97A | -0.467 ± 1.2 | -0.235 ± 0.37
90 | CG C97A C98A | -1.76 ± 0.82 | -1.7 ± 0.77
91 | CG C97A C98A A99C T100G | -1.52 ± 0.82 | -2.58 ± 1
92 | CG C97G | -0.468 ± 0.14 | -0.455 ± 0.23
93 | CG C97G C98G | -1.23 ± 0.91 | -1.07 ± 0.5
94 | CG C97G C98G A99T T100A | -0.482 ± 0.85 | -1.36 ± 0.79
95 | CG C97T | -0.391 ± 0.74 | -0.324 ± 0.13
96 | CG C98A | -0.338 ± 1.2 | -0.0969 ± 0.46

Row | Variant | relative integration efficiency (log2) [1] | relative integration efficiency (log2) [2]
97 | CG C98A A99C | -1.94 ± 1 | -1.73 ± 0.54
98 | CG C98A A99C T100G A101C | -1.33 ± 0.029 | -2.27 ± 0.92
99 | CG C98G | -0.135 ± 0.48 | -0.464 ± 0.23
100 | CG C98G A99T | -1.62 ± 0.4 | -1.51 ± 0.56
101 | CG C98G A99T T100A A101T | -1.8 ± 0.21 | -2 ± 0.73
102 | CG C98T | -0.0503 ± 0.61 | -0.178 ± 0.14
103 | CG C121A A123G G124A T129C G132A A134C A135T A136T A137C C138A C141G G143T C144T | 0.708 ± 0.024 | 0.721 ± 0.23
104 | CG C121A G122T A123C G124T T125G | 0.905 ± 0.042 | 0.666 ± 0.12
105 | CG G4A | -0.235 ± 0.11 | -0.0961 ± 0.035
106 | CG G4C | 0.0545 ± 0.11 | -0.131 ± 0.036
107 | CG G4C T5A | 0.189 ± 0.31 | 0.0402 ± 0.15
108 | CG G4T | 0.222 ± 0.16 | -0.172 ± 0.075
109 | CG G4T T5G | -0.37 ± 0.2 | -0.366 ± 0.035
110 | CG G4T T5G T6G G7T | < -10 | -6.583 ± 0.046
111 | CG G7A | -0.532 ± 0.023 | -0.156 ± 0.15
112 | CG G7C | -0.0662 ± 0.49 | -0.11 ± 0.25
113 | CG G7C T8A T9A G10C | < -10 | -6.612 ± 0.065
114 | CG G7T | -4.09 ± 0.17 | -2.59 ± 0.72
115 | CG G7T T8G | < -10 | -7.23 ± 1.1
116 | CG G10A | -0.534 ± 0.039 | -0.083 ± 0.089
